“Also recorded” adds a separate entry of the source. Square brackets hold non-standard residues; d marks the D form. Ends that are not written are not given here. fluorescein = N-terminal fluorescein label; pS = N[C@@H](COP(=O)(O)O)C(=O)O
What was measured:
human 14-3-3 isoform σ = target: T1, human 14-3-3 isoform σ (Homo sapiens, UniProt P31947); assay: Fluorescence polarization (FP) direct binding assay; conditions: fluorescein-labeled peptide 1 nM
T1 construct: MBP (cleaved yes); made in house; host or cells: E. coli BL21DE3
T1 sequence (P31947 1-248): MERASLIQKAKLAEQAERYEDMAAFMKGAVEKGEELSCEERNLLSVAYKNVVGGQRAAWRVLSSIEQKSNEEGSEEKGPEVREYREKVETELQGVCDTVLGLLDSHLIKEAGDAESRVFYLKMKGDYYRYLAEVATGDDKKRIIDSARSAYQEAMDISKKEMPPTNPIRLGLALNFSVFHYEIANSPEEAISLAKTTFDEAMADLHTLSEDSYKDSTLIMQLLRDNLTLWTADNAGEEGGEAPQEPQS
Method: (§1) Human MBP-tagged 14-3-3 isoforms were expressed from pMAL2CX plasmids [[Kilisch et al. (2016)], [Yuan et al. (2003)]] in E. coli BL21DE3 cells. After induction with […] isopropyl-β-D-thiogalactoside, the protein was expressed for 4 h at room temperature. Cells were lysed in MBP-lysis buffer [50 mM Tris–HCl pH 7.5, 150 mM NaCl, 5 mM MgCl2, 1 mM PMSF, 1× cOmplete Protease Inhibitor EDTA-free (Roche)] using a French Pressure cell (FRENCH Press, Thermo, United States). Following centrifugation at 42,000 × g and 4°C for 30 min, the supernatant was transferred to a Maltose-agarose column (1.5 ml bed volume; New England Biolabs GmbH, Germany). Captured proteins were washed six times with 10 ml wash buffer (50 mM Tris–HCl pH 7.5, 150 mM NaCl, 5 mM MgCl2) prior to elution using wash buffer including 15 mM D-maltose. To remove the MBP tag, fusion proteins were incubated with Factor Xa (New England Biolabs GmbH, Germany), at a final concentration of 0.4 μg per 1 mg fusion protein for 24 h at RT following another 72 h at 4°C. Anion exchange chromatography was finally applied to separate residual MBP using a buffer gradient from 20 mM Tris pH 8 to 20 mM Tris pH 8 with 1 M NaCl. For this a RESOURCE Q column (GE Healthcare, United Kingdom) was utilized, employing an ÄKTApurifier (GE Healthcare, United Kingdom) or an NGC Quest Chromatography System (Bio-Rad Laboratories GmbH, Germany).
(§2) FP was used to determine binding affinities of different phosphorylated and non-phosphorylated peptides derived from LRRK2 sequences (Peps4LS GmbH, Germany) toward human 14-3-3 isoforms. Direct binding assays were performed and evaluated as previously described ([Muda et al., 2014]; [Manschwetus et al., 2019]). Briefly, both dilution series of 14-3-3 isoforms ranging from final concentrations of at least 5 μM down to picomolar concentrations and dilutions of the respective fluorescein-labeled peptide (final conc. 1 nM) were prepared in FP buffer (20 mM MOPS pH 7, 150 mM NaCl, 0.005% CHAPS). Subsequently, samples were mixed in 384-well microtiter plates as duplicates (BRAND plates, pureGrade, black, BRAND GmbH & Co. KG, Germany) in a 1:1 ratio and measured using a CLARIOstar plate reader (BMG LABTECH, Germany). Two protein preparations were utilized for at least two independent replications for all measurements while high affinity binding peptides were particularly measured with a minimum of three independent replications for statistical evaluation. Data was analyzed with GraphPad Prism 6.0 (GraphPad Software, San Diego, CA, United States) by plotting obtained FP signals (mPol) against the logarithmic 14-3-3 protein concentrations. Data points represent means ± standard error of mean (SEM) of duplicates. “Ctrl.” indicates the FP signal of fluorescein-labeled peptides without 14-3-3 protein. Sigmoidal dose-response fitting was performed to define KD-values.

human 14-3-3γ = target: T2, human 14-3-3γ (Homo sapiens, UniProt P61981); assay: as above; conditions: dilution series of 14-3-3γ (at least 5 μM down to pM), fluorescein-labeled peptide 1 nM
T2 construct: MBP (cleaved yes); made in house; host or cells: E. coli BL21DE3
T2 sequence (P61981 1-247): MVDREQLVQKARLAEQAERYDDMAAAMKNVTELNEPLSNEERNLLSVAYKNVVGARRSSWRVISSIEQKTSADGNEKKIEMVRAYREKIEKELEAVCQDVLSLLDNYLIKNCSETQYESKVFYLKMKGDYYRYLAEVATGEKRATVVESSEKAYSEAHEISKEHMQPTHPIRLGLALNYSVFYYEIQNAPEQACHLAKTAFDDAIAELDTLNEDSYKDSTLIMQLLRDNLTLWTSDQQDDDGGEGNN
Method: as §1, §2

[1] = system: all seven human 14-3-3 isoforms; assay: Fluorescence polarization (FP) direct binding assay, statements over all isoforms; conditions: FP direct binding; all seven isoforms; fluorescein-labeled peptide 1 nM; FP buffer pH 7
Method: as §1, §2

human 14-3-3 isoform ϵ = target: T3, human 14-3-3 isoform ϵ (Homo sapiens, UniProt P62258); assay: Fluorescence polarization (FP) direct binding assay; conditions: fluorescein-labeled peptide 1 nM
T3 construct: MBP (cleaved yes); made in house; host or cells: E. coli BL21DE3
T3 sequence (P62258 1-255): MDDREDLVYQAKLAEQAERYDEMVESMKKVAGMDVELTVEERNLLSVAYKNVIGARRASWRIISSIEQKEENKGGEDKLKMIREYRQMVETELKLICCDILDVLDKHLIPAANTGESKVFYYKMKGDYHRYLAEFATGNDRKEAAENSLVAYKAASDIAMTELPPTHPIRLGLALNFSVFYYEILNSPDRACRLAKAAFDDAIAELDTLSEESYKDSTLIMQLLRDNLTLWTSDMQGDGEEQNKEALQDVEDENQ
Method: as §1, §2

14-3-3γ = 14-3-3γ (UniProt P61981); assay: fluorescence polarization direct binding
14-3-3ε = 14-3-3ε (UniProt P62258); assay: fluorescence polarization direct binding; conditions: reference: unphosphorylated S1443/S1444 peptide; sites S1444
R1441C/pS1444 = target: T4, R1441C/pS1444 (R1441C (stands in the printed letters)); assay: fluorescence polarisation; direct binding; dilution series of 14-3-3 isoform (at least 5 μM down to picomolar) mixed with 1 nM fluorescein-labelled peptide; 20 mM MOPS pH 7, 150 mM NaCl, 0.005% CHAPS; 384-well plates; conditions: both partners purified
T4 construct: LRRK2-derived peptide of the Roc domain with the familial PD mutation R1441C, phosphorylated at S1444; source: synthetic peptide (Peps4LS GmbH)
T4 peptide: fluorescein-LFNIKACAS[pS]SPVILVGT

pS1444 = assay: as above

Molecule: HIEVRKELAEKMRRpTSVE [pT2524, fluorescein-labeled phosphopeptide of the LRRK2 C-terminus comprising pT2524]
- Binding to 14-3-3 isoform σ, in words (human 14-3-3 isoform σ): worst binding
- Binding to 14-3-3γ, in words (human 14-3-3γ; FP buffer pH 7): micromolar affinities
- Binding to 14-3-3γ, in words (human 14-3-3γ; FP buffer pH 7, listed as Phosphorylated T2524): clearly binds with micromolar affinity
- Binding to the human 14-3-3 isoforms, in words [1]: Micromolar affinities; also recorded: low micromolar range

Molecule: LFNIKARApSpSSPVILVGT [pS1443/pS1444, fluorescein-labeled LRRK2 Roc domain peptide doubly phosphorylated at S1443 and S1444]
- Binding to 14-3-3 isoform ϵ, in words (human 14-3-3 isoform ϵ): not fitted due to an unusual binding behavior
- Binding to 14-3-3γ, in words (human 14-3-3γ; FP buffer pH 7): reduced binding to 14-3-3γ compared to pS1444
- Binding to the human 14-3-3 isoforms, in words [1]: micromolar affinities; also recorded: reduced nanomolar binding affinity to micromolar values

Molecule: LRRK2 (leucine-rich repeat kinase 2) (from UniProt Q5S007) pS910 peptide
- binding against the reference (14-3-3γ; reference: unphosphorylated S910 peptide, sites S910): gained

Molecule: LRRK2 (leucine-rich repeat kinase 2) (from UniProt Q5S007) pS1443/pS1444 peptide
- KD (14-3-3γ; reference: pS1444 peptide, sites S1443): weaker; reference 106 ± 4
- binding against the reference (14-3-3γ; reference: unphosphorylated S1443/S1444 peptide, sites S1443,S1444): gained

Molecule: LRRK2 (leucine-rich repeat kinase 2) (from UniProt Q5S007) pS1444 peptide
- KD (14-3-3ε): gained; reference no binding detected

B1: human 14-3-3 isoform η (recombinant, MBP tag removed) (natural protein, UniProt Q04917 1-246, looked up)
chain: MGDREQLLQRARLAEQAERYDDMASAMKAVTELNEPLSNEDRNLLSVAYKNVVGARRSSWRVISSIEQKTMADGNEKKLEKVKAYREKIEKELETVCNDVLSLLDKFLIKNCNDFQYESKVFYLKMKGDYYRYLAEVASGEKKNSVVEASEAAYKEAFEISKEQMQPTHPIRLGLALNFSVFYYEIQNAPEQACLLAKQAFDDAIAELDTLNEDSYKDSTLIMQLLRDNLTLWTSDQQDEEAGEGN
notes: 14-3-3 eta, human; Expressed from pMAL2CX plasmids; also called 14-3-3η; source: E. coli BL21DE3, purified (maltose-agarose, Factor Xa, anion exchange)
- fold decrease in affinity against pS1444 (R1441C/pS1444): ≥ 30 fold
- Kd (pS1444): 85 nM

B2: human 14-3-3 isoform θ (recombinant, MBP tag removed) (natural protein, UniProt P27348 1-245, looked up)
chain: MEKTELIQKAKLAEQAERYDDMATCMKAVTEQGAELSNEERNLLSVAYKNVVGGRRSAWRVISSIEQKTDTSDKKLQLIKDYREKVESELRSICTTVLELLDKYLIANATNPESKVFYLKMKGDYFRYLAEVACGDDRKQTIDNSQGAYQEAFDISKKEMQPTHPIRLGLALNFSVFYYEILNNPELACTLAKTAFDEAIAELDTLNEDSYKDSTLIMQLLRDNLTLWTSDSAGEECDAAEGAEN
notes: 14-3-3 theta, human; Expressed from pMAL2CX plasmids; also called 14-3-3θ; source: E. coli BL21DE3, purified (maltose-agarose, Factor Xa, anion exchange)
- fold decrease in affinity against pS1444 (R1441C/pS1444): ≥ 30 fold
- Kd (pS1444): 195 nM

B3: human 14-3-3 isoform σ (recombinant, MBP tag removed) (natural protein, UniProt P31947 1-248, looked up)
chain: T1 sequence (P31947 1-248)
notes: 14-3-3 sigma, human; Expressed from pMAL2CX plasmids; also called 14-3-3σ; source: E. coli BL21DE3, purified (maltose-agarose, Factor Xa, anion exchange)
- fold decrease in affinity against pS1444 (R1441C/pS1444): ≥ 30 fold
- Kd (pS1444): 802 nM

— paper PMC7155755, “Binding of the Human 14-3-3 Isoforms to Distinct Sites in the Leucine-Rich Repeat Kinase 2” (Frontiers in Neuroscience, 2020)
